Source: article PMC10000386

Molecular target: T1, Bak ΔBH3, Q16611
T1 chain: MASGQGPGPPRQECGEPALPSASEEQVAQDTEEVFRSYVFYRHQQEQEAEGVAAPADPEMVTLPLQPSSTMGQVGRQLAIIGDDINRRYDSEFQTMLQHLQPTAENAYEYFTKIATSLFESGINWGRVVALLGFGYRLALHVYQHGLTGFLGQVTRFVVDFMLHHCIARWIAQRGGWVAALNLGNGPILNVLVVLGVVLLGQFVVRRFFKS
Experiment: BiFC (flow cytometry)
Conditions: chain shown with the change; 6 independent experiments; read off a plot

B1: Bak, Q16611 H164A (protein)
chain: MASGQGPGPPRQECGEPALPSASEEQVAQDTEEVFRSYVFYRHQQEQEAEGVAAPADPEMVTLPLQPSSTMGQVGRQLAIIGDDINRRYDSEFQTMLQHLQPTAENAYEYFTKIATSLFESGINWGRVVALLGFGYRLALHVYQHGLTGFLGQVTRFVVDFMLAHCIARWIAQRGGWVAALNLGNGPILNVLVVLGVVLLGQFVVRRFFKS
- response (Mean Venus/Mean mRFP): 0.95
